To fix the notation:
T1: cynomolgus Hepcidin-25 (cynomolgus, UniProt A7XEI3 60-84, not fully specified)
T1 construct: mature
T1 peptide: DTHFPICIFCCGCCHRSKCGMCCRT

T2: C-terminal biotinylated human Hepcidin-25 (human, not fully specified; biotinylated via a Lysine residue coupled to the C-terminus via a Mini-PEG linker)
T2 construct: Bought from Bachem AG; Captured on plates via Neutravidin; also called C-terminal biotinylated hepcidin; C-terminal biotinylated hHepcidin
T2 peptide: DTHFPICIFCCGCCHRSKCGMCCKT

T3: lipocalin mutein of SEQ ID NO: 14, linked to PEG40 (branched 40k PEG-maleimide on the free Cys at position 87)
T3 construct: hNGAL mutein with Ser 87 back-mutated to Cys and PEGylated there
T3 chain: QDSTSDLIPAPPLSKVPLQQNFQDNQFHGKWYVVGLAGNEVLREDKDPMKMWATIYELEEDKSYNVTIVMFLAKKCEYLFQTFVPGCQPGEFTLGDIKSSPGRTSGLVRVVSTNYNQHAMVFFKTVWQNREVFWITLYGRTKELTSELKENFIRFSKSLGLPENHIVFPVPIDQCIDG

B1: lipocalin mutein of SEQ ID NO: 1 (designed binder)
chain: T3 chain with C87S
notes: also called Lcn2 mutein; hNGAL mutein
B2: lipocalin mutein of SEQ ID NO: 13, linked to PEG40 (designed binder)
chain: T3 chain with E59K, F71P, K74E, D96G, S100G, T125V, I135V
modifications: branched 40k PEG-maleimide on the free Cys at position 87
notes: hNGAL mutein with Ser 87 back-mutated to Cys and PEGylated there
B3: pegylated mutein of SEQ ID NO: 1 (designed binder)
chain: T3 chain
modifications: branched 40k PEG-maleimide on Cys 87
B4: pegylated mutein of SEQ ID NO: 8 (designed binder)
chain: T3 chain with E59K, F71P, K74E, D96G, S100G, T125V, I135V
modifications: branched 40k PEG-maleimide on Cys 87
B5: lipocalin mutein of SEQ ID NO: 8 (designed binder)
chain: T3 chain with E59K, F71P, K74E, C87S, D96G, S100G, T125V, I135V
notes: also called Lcn2 mutein
B6: synthetic non-modified human Hepcidin-25 (peptide)
peptide: DTHFPICIFCCGCCHRSKCGMCCKT
modifications: not fully specified (bridges); ends and bridges not checked
notes: also called hHepcidin-25; non-biotinylated human hepcidin

Positions count from the first letter of the chain named. Where no end group is shown, it is not given here.

In assay [1] the target is B6. Kind of assay: competition ELISA: non-biotinylated human hepcidin-25 titrated against a constant concentration of mutein; free mutein detected on plate-captured biotinylated human hepcidin. On the procedure: The binding affinity of the Lcn2 muteins to non-modified hepcidin-25 in solution was evaluated in a competition ELISA approach. Therefore, a constant concentration of 1 μg/ml C-terminal biotinylated human hepcidin (Bachem AG, CH) was captured on the surface of a polystyrol plate (Greiner, GE) via Neutravidin (Thermo Scientific, 5 μg/ml, GE). In parallel a two step dilution series of non-biotinylated human hepcidin starting from 1 μM was incubated with a constant concentration of hepcidin-specific mutein for 1 h at room temperature in a non-protein binding 96 well polypropylene plate (Nunc, GE). The constant concentration of lipocalin muteins corresponds to the EC₅₀ of the respective muteins as determined in a direct ELISA as described above in this example. In the following the mixture of non-modified human hepcidin and lipocalin mutein was transferred onto the hepcidin-captured Neutravidin plate. The C-terminal biotinylated hepcidin was allowed to compete with the non-modified hepcidin for Anticalin binding for 20 min. at room temperature. During these 20 min, free lipcocalin mutein was bound to the captured hepcidin and detected via a rabbit anti-strep-tag II polyconal antibody (GenScript, USA). A goat anti-rabbit IgG-HRP conjugate (Abcam, UK) was employed as secondary detection antibody. Parallel to the competition assay, anticalin binding was determined on the same plate in a “direct” ELISA, in order to obtain a standard curve linking the RFU values to anticalin concentration. This curve was then used to standardize competition data to the level of anticalins bounds to the plate and fitted with Graphpad software. IC₅₀ values correspond to the half-maximum amount of lipocalin mutein bound to the plate.
On the technique in general: In an ELISA, binding on a coated surface is turned into a signal by an enzyme label.

The target of assay [2] is B6. In words: SPR (Biacore T100), mutein immobilized on CM5 chip, hepcidin-25 in solution, 1:1 model. The procedure: (§1) Lipocalin muteins were immobilized to a CM5 sensor chip using standard amine chemistry: The surface of the chip was activated using EDC and NHS. Subsequently, 20 μg/mL lipocalin mutein solutions in 10 mM sodium acetate pH 4.5 (60 μg/mL in 10 mM sodium acetate pH 4.0 for pegylated lipocalin mutein) were applied at a flow rate of 5 μL/min until a surface density of 500-700 resonance units (RU) for non-modified lipocalin muteins and of approximately 1600 RU for pegylated lipocalin with the sequence of SEQ ID NO: 13 was achieved. Residual activated groups were saturated with ethanolamine. The reference channels were treated with EDC/NHS following ethanolamine (blank immobilization). All reagents and materials were purchased from GE Healthcare.
(§2) Serial dilutions of human and cynomolgus Hepcidin-25 in running buffer (HBS-EP+, GE Healthcare, BR-1006-68) were applied to the prepared surface. The following parameters were used for the binding assay: contact time 60 s, dissociation time 180-360 s, flow rate 30 μL/min. All measurements were performed on a Biacore T100 instrument (GE Healthcare) at 25° C.
(§3) Data were evaluated with Biacore T100 Evaluation software (V 2.0.1). Double referencing was used. The 1:1 Binding model (Langmuir) was used to fit the raw data.
(In SPR one partner is held on a chip, and binding of the other changes the refractive index at the surface.)

Assay [3] deals with T1, cynomolgus Hepcidin-25. Described as above. On the procedure:
as §1, §2, §3

In assay [4] the target is B6. In words: cell-based or functional assay.
For assay [5], the target named is T2, C-terminal biotinylated human …. Kind of assay: direct ELISA, biotinylated hepcidin captured via Neutravidin, mutein titrated. On the procedure:
(§4) A “direct” ELISA was performed to verify the binding affinity and specificity of the selected Lcn2 muteins. Therefore, a constant concentration of 1 μg/ml C-terminal biotinylated hepcidin (Bachem AG, CH) was captured on the surface of a polystyrol plate (Greiner, GE) via Neutravidin (Thermo Scientific, 5 μg/ml). Two step dilution series of purified Lcn2 muteins were incubated with the captured hepcidin for 1 h at room temperature and detected either via the Strep-tag II using a rabbit anti-strep-tag II polyconal antibody (GenScript, USA) or by using a scaffold-specific polyclonal rabbit antibody. In both cases an anti rabbit IgG-HRP conjugate (Abcam, UK) was employed as secondary detection antibody.
(§5) The absorption ΔA at […] was measured in an ELISA reader (Tecan, GE) and the data were fitted with Graphpad Prism software (Statcom, USA).

The target of assay [6] is T1, cynomolgus Hepcidin-25. Kind of assay: SPR, Biacore T100, mutein amine-coupled to CM5 chip, hepcidin as analyte, 25 C. The procedure: as §1, §2, §3
For assay [7], the target named is T1, cynomolgus Hepcidin-25. Kind of assay: direct ELISA on cynomolgus hep-25, mutein titrated. On the procedure: as §4, §5
Assay [8] has as its target B6. In words: SPR, Biacore T100, pegylated mutein amine-coupled to CM5 chip, hepcidin as analyte, 1:1 model, 25 C. The procedure:
as §1, §2, §3

For assay [9], the target named is T2, C-terminal biotinylated human …. In words: direct ELISA, biotinylated hepcidin captured via Neutravidin. On the procedure:
as §4, §5

Assay [10] has as its target murine ferroportin (FPN) carboxy-terminally fused with green fluorescent protein (GFP) (murine), Q9JHI9. In words: cell-based or functional assay.
In assay [11] the target is B2. In words: competition ELISA, free human hepcidin against captured biotinylated hepcidin.
In assay [12] the target is T3, lipocalin mutein of SEQ ID NO: 14, …. The assay is described as above.

Sequence of murine ferroportin (FPN) carboxy-terminally fused with green fluorescent protein (GFP) (murine), Q9JHI9 (Q9JHI9 whole entry, the tested form may be a part): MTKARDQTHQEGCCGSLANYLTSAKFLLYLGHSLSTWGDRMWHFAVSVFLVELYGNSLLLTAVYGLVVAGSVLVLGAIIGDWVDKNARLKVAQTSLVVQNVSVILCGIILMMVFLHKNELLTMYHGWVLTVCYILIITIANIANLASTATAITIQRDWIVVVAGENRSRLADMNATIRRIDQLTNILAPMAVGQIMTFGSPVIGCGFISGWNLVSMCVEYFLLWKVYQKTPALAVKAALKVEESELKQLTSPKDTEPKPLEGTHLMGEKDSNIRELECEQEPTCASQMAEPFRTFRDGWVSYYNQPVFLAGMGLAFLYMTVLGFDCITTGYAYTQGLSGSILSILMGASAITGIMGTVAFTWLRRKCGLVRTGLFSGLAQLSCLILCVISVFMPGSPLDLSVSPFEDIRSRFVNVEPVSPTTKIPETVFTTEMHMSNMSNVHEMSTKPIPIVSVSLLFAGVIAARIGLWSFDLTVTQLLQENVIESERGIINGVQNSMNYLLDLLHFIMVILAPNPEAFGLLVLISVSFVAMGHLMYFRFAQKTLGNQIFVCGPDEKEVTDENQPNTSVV

Consider B1, for which the IC50 in assay [1] was determined as 0.34 nM. In addition, the Kd in [2] was 0.589 nM; with cynomolgus Hepcidin-25 [3], 0.332 nM; in assay [5], 0.26 nM; with cynomolgus Hepcidin-25 [7], 0.43 nM. The figures for the off-rate (koff) (in assay [2]; with cynomolgus Hepcidin-25 [3]) were 0.00116 s⁻¹ and 0.000934 s⁻¹, respectively. Also, the results for the kon (in [2]; in the assay with cynomolgus Hepcidin-25 [3]) were 1.97e+06 M⁻¹ s⁻¹ and 2.84e+06 M⁻¹ s⁻¹, respectively. Also, the “IC50 of neutralization of hepcidin-induced (40 nM) internalization and degradation of FPN-GFP in T-REx-293 cells, GFP fluorescence by flow cytometry” value (from here on “IC50 of neutralization … by flow cytometry”) in assay [4] stood at 66 nM. Also, the “fold higher affinity compared to the human target” value (shortened to “fold higher affinity”) with cynomolgus Hepcidin-25 [6] was around 2 fold.
Turning to B2, the IC50 in [1] stood at 0.24 nM. Moreover, in assay [2], the Kd worked out at 0.041 nM, the koff was found to be 0.000123 s⁻¹ and the kon was 2.98e+06 M⁻¹ s⁻¹. Besides, the “IC50 of neutralization … by flow cytometry” value in assay [4] was 34 nM. The molecule also displayed a Kd in [5] of 3.49 nM. Also, the “fold higher affinity” value in the assay with cynomolgus Hepcidin-25 [6] was around 2 fold. Also, the affinity in assay [8], expressed as Kd, was 0.04 nM.
With B3, the “factor by which pegylation reduced the binding affinity (against the non-pegylated mutein)” value in [9] came out at 8 fold.
Take B4: the “factor by which pegylation reduced the binding affinity (against the non-pegylated mutein)” value in assay [9] is 5 fold.
For B5, the IC50 in assay [1] came to 0.1 nM. The Kd in assay [2] is 0.123 nM; with cynomolgus Hepcidin-25 [3] it was 0.066 nM; in assay [5], 0.66 nM; in the assay with cynomolgus Hepcidin-25 [7], 0.67 nM. In addition, the koff in assay [2] was determined as 0.000178 s⁻¹; with cynomolgus Hepcidin-25 [3], 0.000245 s⁻¹. Moreover, the kon is 1.45e+06 M⁻¹ s⁻¹ in assay [2] and 3.74e+06 M⁻¹ s⁻¹ with cynomolgus Hepcidin-25 [3]. Moreover, the “IC50 of neutralization … by flow cytometry” value in assay [4] worked out at 31 nM. For the same molecule, in the assay with cynomolgus Hepcidin-25 [6], the “fold higher affinity” value is around 2 fold.
As for B6, in assay [10], the EC80 of hepcidin-mediated degradation of the Fpn-GFP fusion protein (GFP fluorescence by flow cytometry) is 40 nM. Further, the figures for the “factor by which pegylation reduced the binding affinity (against the non-pegylated mutein)” value in assay [11] and in assay [12] were 2 fold and 4 fold, respectively.

Usually IC50 stands for the concentration needed to halve the response being measured. Higher therefore signals weaker potency in that assay. By Kd is commonly meant the constant that tells how readily two partners part at equilibrium. One may read the koff as the first-order rate constant of dissociation. A word on the kon: it is the second-order rate constant of association. A high value points to faster complex formation.

The values are drawn from patent US20170369542A1 (Pieris, published 2017).
